Assay results published in patent US20260139007A1, “EPHA4 ANTAGONISTS AND USES THEREOF” (SANFORD BURNHAM PREBYS MEDICAL DISCOVERY INSTITUTE, priority 2023, published 2026).

Tests used:
[1] = biological target: EphA4 Fc (human EphA4 Fc, #CJ75, Novoprotein, or mouse EphA4 Fc, #641-A4, R&D Systems/BioTechne) (human or mouse) (UniProt P54764); assay: competition ELISA, inhibition of ephrin-A5 AP binding to immobilized EphA4 Fc (Table 2, repeats Table 1)
[2] = biological target: EphA4 Fc (human EphA4 Fc, #CJ75, Novoprotein, or mouse EphA4 Fc, #641-A4, R&D Systems/BioTechne) (human or mouse) (UniProt P54764); assay: competition ELISA, inhibition of ephrin-A5 AP binding to immobilized EphA4 Fc

Chain of EphA4 Fc (human EphA4 Fc, #CJ75, Novoprotein, or mouse EphA4 Fc, #641-A4, R&D Systems/BioTechne) (human or mouse) (P54764 20-547): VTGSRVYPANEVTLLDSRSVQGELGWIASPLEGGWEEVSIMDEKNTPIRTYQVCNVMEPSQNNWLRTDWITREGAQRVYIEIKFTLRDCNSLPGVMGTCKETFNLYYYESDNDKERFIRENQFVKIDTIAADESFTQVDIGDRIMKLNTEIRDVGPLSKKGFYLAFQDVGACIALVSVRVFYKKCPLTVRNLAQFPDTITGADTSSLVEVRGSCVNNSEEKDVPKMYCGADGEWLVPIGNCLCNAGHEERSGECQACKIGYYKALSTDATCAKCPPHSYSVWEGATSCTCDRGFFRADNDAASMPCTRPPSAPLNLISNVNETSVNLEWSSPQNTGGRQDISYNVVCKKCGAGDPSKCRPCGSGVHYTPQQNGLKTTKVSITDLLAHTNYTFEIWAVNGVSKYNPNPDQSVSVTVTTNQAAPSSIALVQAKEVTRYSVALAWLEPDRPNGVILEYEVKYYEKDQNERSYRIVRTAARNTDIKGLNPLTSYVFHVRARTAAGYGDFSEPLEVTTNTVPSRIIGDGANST

IC50 [1]: 20 nM
IC50 [2]: 20 nM
B1: APY-d3-PEG4 (peptide)
peptide: XPYCVYRXSWSCXXX
modifications: β-alanine at 1 and 8; disulfide bond Cys4-Cys12 (Cyc (4,12)); three 6-aminohexanoic acid (Ahx) residues and propargyl-glycine (Pra) after Cys12; 30 kDa methoxy-PEG on Pra through a triazole (click chemistry); free C-terminal acid (-OH)
